This passage reports Kd and EC50 results from patent US20210170043A1 (Novartis, published 2021).

For assay [1], the target named is T1, DC-SIGN Carbohydrate Recognition Domain (CRD), His-tagged (human, UniProt Q9NNX6 250-404).
T1 construct: also called DC-SIGN CRD; not shown: His tag used for capture
T1 sequence: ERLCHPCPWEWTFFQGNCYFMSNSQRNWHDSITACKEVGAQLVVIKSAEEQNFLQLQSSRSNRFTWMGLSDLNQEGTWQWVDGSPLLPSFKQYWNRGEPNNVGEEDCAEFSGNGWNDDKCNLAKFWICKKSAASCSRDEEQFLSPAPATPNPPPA
In words: SPR (Biacore 8K), His-tagged DC-SIGN CRD captured at high density on chip, antibody as analyte.

For assay [2], the target named is T2, human DC-SIGN (full length, expressed on cells) (human, UniProt Q9NNX6 1-404).
T2 construct: Also used for DC-SIGN on human monocyte-derived cells and on cells of human DC-SIGN transgenic mice in the functional rows; also called CD209; human DC-SIGN CHO
T2 sequence: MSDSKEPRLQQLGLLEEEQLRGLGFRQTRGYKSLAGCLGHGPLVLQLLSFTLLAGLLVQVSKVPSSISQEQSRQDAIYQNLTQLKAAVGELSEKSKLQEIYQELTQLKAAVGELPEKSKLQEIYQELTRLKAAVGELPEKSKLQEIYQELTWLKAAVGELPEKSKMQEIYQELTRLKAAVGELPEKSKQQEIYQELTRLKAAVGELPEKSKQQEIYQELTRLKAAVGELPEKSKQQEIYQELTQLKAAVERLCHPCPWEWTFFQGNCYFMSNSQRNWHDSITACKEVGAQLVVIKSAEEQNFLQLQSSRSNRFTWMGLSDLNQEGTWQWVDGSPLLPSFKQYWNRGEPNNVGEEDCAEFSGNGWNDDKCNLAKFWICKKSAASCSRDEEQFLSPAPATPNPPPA
In words: flow cytometry, IgG titrated on human DC-SIGN K562 cells.

For assay [3], the target named is T2, human DC-SIGN (full length, expressed …). In words: flow cytometry, IgG titrated on human DC-SIGN CHO cells.
Assay [4] concerns the target T3, cynomolgus monkey DC-SIGN (full length, expressed on CHO cells) (cynomolgus monkey, UniProt Q95J96 1-403 (rhesus entry)).
T3 construct: also called cyno DC-SIGN; cyno DC-SIGN CHO
T3 sequence: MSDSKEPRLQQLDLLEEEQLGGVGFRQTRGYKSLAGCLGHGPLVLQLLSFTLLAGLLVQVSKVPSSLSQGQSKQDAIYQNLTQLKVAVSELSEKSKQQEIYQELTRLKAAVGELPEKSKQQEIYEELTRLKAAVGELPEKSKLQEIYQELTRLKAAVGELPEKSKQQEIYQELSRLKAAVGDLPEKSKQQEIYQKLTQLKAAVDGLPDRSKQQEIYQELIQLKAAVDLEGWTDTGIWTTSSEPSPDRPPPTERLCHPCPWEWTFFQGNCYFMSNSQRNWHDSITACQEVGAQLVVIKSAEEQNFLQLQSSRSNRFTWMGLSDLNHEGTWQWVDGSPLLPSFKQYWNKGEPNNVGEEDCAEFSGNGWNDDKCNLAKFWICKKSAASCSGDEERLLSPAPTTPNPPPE
The assay is described as follows: flow cytometry, IgG titrated on cyno DC-SIGN CHO cells.

Assay [5] concerns the target T1, DC-SIGN Carbohydrate Recognition Domain …. The assay is described as follows: SPR (Biacore 8K), antibody captured on anti-human IgG Fc chip, DC-SIGN CRD as analyte.

B1: 952P16 Parental (antibody, V domains shown)
VH: QVTLRESGPALVKPTQTLTLTCTFSGFSLSTSGVSVSWIRQPPGKALEWLALIDWDDDKYYSTSLKTRLTISKDTSKNQVVLTMTNMDPVDTATYYCARTPSGSYGRYFDLWGRGTLVTVSS
VL: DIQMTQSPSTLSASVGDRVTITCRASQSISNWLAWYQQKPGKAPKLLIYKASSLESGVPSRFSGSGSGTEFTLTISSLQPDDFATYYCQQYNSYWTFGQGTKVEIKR
On to B1, for which the figures for the dissociation constant Kd in assay [1] and in assay [5] were 3.8 nM and 395 nM, respectively. Also, the EC50 in assay [2] came to 0.04 µg/mL; in assay [3], 0.06 µg/mL; in assay [4], 0.02 µg/mL.

B2: 952G04 Parental (antibody, V domains shown)
VH: QVTLRESGPALVKPTQTLTLTCTFSGFSLSTSGVSVTWIRQPPGKALEWLALIDWDDDKYYSTSLKTRLAISKDTSKNQVVLTMTNMDPVDTATYYCARTPSGSYGRYFDLWGRGTLVTVSS
VL: DIQMTQSPSTLSASVGDRVTITCRASQSISTWLAWYQQKPGKAPKLLIYEASSLESGVPSRFSGSGSGTEFTLTISSLQPDDFATYYCQQYNSYWTFGQGTKVEIKR
In the case of B2, the Kd in assay [1] was 3.7 nM; in assay [5], 346 nM. The EC50 in assay [2] is 0.26 µg/mL; in assay [3] it was 0.11 µg/mL; in assay [4] it was 0.19 µg/mL.

B3: 958N05 Parental (antibody, V domains shown)
VH: QVTLRESGPALVKPTQTLTLTCTFSGFSLSTSGISVSWIRQPPGKALEWLALIDWDDDKYYSTSLKTRLTISKDTSKNQVVLTMTNMDPVDTATYYCARTPSGSYGRYFDLWGRGTLVTVSS
VL: DIQLTQSPSTLSASVGDRVTITCRASQSISNWLAWYQQKPGKAPKLLIYKASSLESGVPSRFTGSGSGTEFTLTISSLQPDDFATYYCQQYNSYWTFGQGTKVEIKR
Take B3: the results for the Kd in assay [1] and in assay [5] were 1.7 nM and 174 nM, respectively. Further, the EC50 was found to be 0.05 µg/mL in assay [2], 0.07 µg/mL in assay [3] and 0.08 µg/mL in assay [4].

B4: 906C18 Parental (antibody, V domains shown)
VH: EVQLVESGGGLVQPGGSLRLSCAASGFTFNNYWMNWVRQAPGKGLEWVANIRQDGSEKYYVDSVKGRFTISRDNAKNSLFLQMNSLRAEDTAVYYCARERAYCSTTSCPDYSNDYWGQGTLVTVSS
VL: EIVMTQSPATLSVSPGERATLSCRASQTINNNLAWFQQKPGQTPRLLIYGASTGATGIPARFSGSGSGTEFTLTISSLQSEDFAVYYCQQYNNWPRGLTFGGGTKVEIKR
Take B4: the dissociation constant (Kd) in assay [1] was 16 nM; in assay [5] it was 1950 nM. Also, the concentration giving a half-maximal response (EC50) in assay [2] worked out at 1.72 µg/mL; in assay [3], 0.21 µg/mL; in assay [4], 0.77 µg/mL.

B5: 2B2 Hz (antibody, V domains shown)
VH: QVQLVQSGAEVKKPGASVKVSCKASGYTFTNYGINWVRQAPGQRLEWMGYIYIGNDYTEYNERFKGRVTITSDTSASTAYMELSSLRSEDTAVYYCARLYYGSSLYSYAMDYWGQGTTVTVSS
VL: DIVMTQSPLSLPVTPGEPASISCRSSKSLLHSSGNTYLYWFLQKPGQSPQLLISRMSNLASGVPDRFSGSGSGTDFTLKISRVEAEDVGVYYCMQHLEYPYTFGGGTKVEIKR
notes: also called humanized 2B2
Regarding B5, the figures for the EC50 in assay [2], in assay [3] and in assay [4] were 0.27 µg/mL, 0.06 µg/mL and 0.04 µg/mL, respectively.

B6: 942K11 Parental (antibody, human IgG1, kappa, V domains shown)
VH: QVQLQESGPGLVKPSETLSLTCTVSGGSISSYYWTWIRQPAGKGLEWIGRVFTSESTNYNPSLKNRVTMSVDTSKNQFSLRLNSVTAADTAMYYCARDRGTYLGGFDPWGQGTLVTVSS
VL: not shown
Consider B6, for which the Kd is 180 nM in assay [1] and 1260 nM in assay [5]. For the same molecule, the figures for the EC50 in assay [3] and in assay [4] were 0.2 µg/mL and 11.6 µg/mL, respectively.

B7: 956E02 Parental (antibody, human IgG1, kappa, V domains shown)
VH: QVQLVQSGAEVKKPGASVKVSCKASGYTFTGYYINWVRQAPGQGLEWMGWINPNSGDTNYAQKFQGRVTMTRDPSISTAYMELSRLRSDDTAVYYCARENSGYGKLFDYWGQGTLVTVSS
VL: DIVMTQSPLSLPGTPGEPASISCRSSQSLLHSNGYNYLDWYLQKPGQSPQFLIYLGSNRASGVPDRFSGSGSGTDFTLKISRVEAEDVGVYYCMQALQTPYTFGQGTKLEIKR
Regarding B7, the Kd came out at 13 nM in assay [1] and 999 nM in assay [5]. For the same molecule, the EC50 in assay [3] came out at 0.12 µg/mL; in assay [4], 0.13 µg/mL.

B8: 960K03 Parental (antibody, V domains shown)
VH: QVTLRESGPALVKPTQTLTLTCTFSGFSLSTGGMCVSWIRQPPGKALEWLALIDWDDDKYYSTSLKTRLTISKDTSKNQLVLTMTNMDPVDTATYYCARAHSGSYFDFWGQGTLVTVSS
VL: DIQMTQSPSTLSASVGDRVTITCRASQRISNWLAWYQQKPGKAPKLLIYKASSLESGVPSRFSGSGSGTEFTLTISSLQPDDFATYYCQQFNSYWTFGQGTKVEIKR
For the molecule B8, the Kd in assay [1] is 0.8 nM; in assay [5] it was 955 nM. Moreover, the 50% effective concentration (EC50) in assay [3] was determined as 0.1 µg/mL; in assay [4] it was 0.02 µg/mL.

B9: 550E03 Parental (antibody, V domains shown)
VH: QVTLRESGPALVKPTQTLTLTCTFSGFSLSTSGMSVSWIRQPPGKALEWLALIDWDDDKYYSTSLKTRLTISKDTSKNQVVLTMTNMDPVDTATYYCARMALRHAFDAWGQGTMVTVSS
VL: QSVLTQPPSVSGAPGQRVTISCTGSSSNIGAGYDVHWYQQLPGTAPKLLIYVNSNRPSGVPDRFSGSKSGTSASLAITGLQAEDEADYYCQSYDSSLSGWVFGGGTKLTVLG
notes: also called 550Ee03
As for B9, the Kd was 5.8 nM in assay [1] and 523 nM in assay [5]. Moreover, the EC50 amounted to 1.5 µg/mL in assay [2], 0.26 µg/mL in assay [3] and 0.39 µg/mL in assay [4].

B10: 914M09 Parental (antibody, human IgG1, kappa, V domains shown)
VH: QVQLQESGPGLVKPSETLSLTCAVSGGSISSYYWNLIRQPAGKGLEWIGRIYTSGSTNYNPSLKSRVTMSVDTSKNQFSLKLSSVTAADTAVYYCARDSGGFYYYYGMDVWGQGTTVTVSS
VL: DIQLTQSPSFLSASVGDRVTITCRASQGISSYLAWYQQKPGKAPKLLIYAASTLQGGVPSRFSGSGSGTEFTLTISSLQPEDFATYHCQQLNSYPWTFGQGTKVEIKR
As for B10, the Kd was 10 nM in assay [1] and 830 nM in assay [5]. Also, the EC50 amounted to 0.25 µg/mL in assay [2], 0.1 µg/mL in assay [3] and 0.08 µg/mL in assay [4].

B11: 2B2 Chimeric (antibody, V domains shown)
VH: EVQLQQSGAELVRPGSSVKMSCKTSGYTFTNYGINWVKQRPGQGLEWIGYIYIGNDYTEYNERFKGKATLTSDTSSSTAHIQLNSLTSEDSAIYFCARLYYGSSLYSYAMDYWGQGTSVTVSS
VL: DIVMTQAAPSVSVTPGESVSISCRSSKSLLHSSGNTYLYWFLQRPGQSPQLLISRMSNLASGVPDRFSGSGSGTAFTLRISRVEAEDVGVYYCMQHLEYPYTFGGGTKLELKR
notes: Murine variable regions on human constant regions
Turning to B11, the EC50 in assay [2] turned out to be 0.28 µg/mL; in assay [3] it was 0.23 µg/mL; in assay [4], 0.32 µg/mL.

B12: 2B2 (parental antibody) (antibody, V domains shown)
VH: EVQLQQSGAELVRPGSSVKMSCKTSGYTFTNYGINWVKQRPGQGLEWIGYIYIGNDYTEYNERFKGKATLTSDTSSSTAHIQLNSLTSEDSAIYFCARLYYGSSLYSYAMDYWGQGTSVTVSS
VL: DIVMTQAAPSVSVTPGESVSISCRSSKSLLHSSGNTYLYWFLQRPGQSPQLLISRMSNLASGVPDRFSGSGSGTAFTLRISRVEAEDVGVYYCMQHLEYPYTFGGGTKLELK
notes: also called antibody 2B2
For the molecule B12, the Kd in assay [1] stood at 0.5 nM; in assay [5] it was 32 nM.
